From patent US20200399314A1 (MEDIKINE, published 2020)
Bridge positions count the residues as written; N and C are the ends. Ends that are not written are not given here.

T1: human IL-2Rα subunit (human, UniProt P01589 22-213, limits assumed)
T1 construct: also called CD25
T1 sequence (looked up): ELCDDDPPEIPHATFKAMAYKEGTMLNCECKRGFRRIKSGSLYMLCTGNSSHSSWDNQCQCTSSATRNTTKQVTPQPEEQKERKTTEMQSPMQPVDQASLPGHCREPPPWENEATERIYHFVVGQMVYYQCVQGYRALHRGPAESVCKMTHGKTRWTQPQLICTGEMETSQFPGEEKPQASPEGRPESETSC


Target: T1, human IL-2Rα subunit

Row | Binder | IC50 [µM]
1 | WVICSALGCKAW [SEQ ID NO 36] | < 100
2 | SRCVMSLQLGACIF [SEQ ID NO 80] | < 100
3 | STWCCLHPGVGECQAV [SEQ ID NO 305] | < 100
4 | SWECVYMPGHQGCRLF [SEQ ID NO 101] | < 100
5 | SGCRLSLLDGHCYF [SEQ ID NO 78] | < 100
6 | KWICRLVPGNGACHSF [SEQ ID NO 95] | < 100
7 | TKLCLKSEPQACWSM [SEQ ID NO 53] | < 100
8 | FLHWPVYFCQVM [SEQ ID NO 4] | < 100
9 | AWECLFLPGHRGCSLF [SEQ ID NO 112] | < 100
10 | DWHCLFLPGHRGCTLF (disulfide 4-13 (inferred)) [SEQ ID NO 117] | < 100
11 | NHCTMDWRLGACIF [SEQ ID NO 77] | < 100
12 | YWECVFMPGHRGCSLI [SEQ ID NO 119] | < 100
13 | VRMCYVAPGYVSCPRM [SEQ ID NO 104] | < 100
14 | ETPCDLHPGHWSCSMV [SEQ ID NO 127] | < 100
15 | HVICSVNGGCRG [SEQ ID NO 44] | < 100
16 | VTQCFDGPGSFRCCYQ [SEQ ID NO 306] | < 100
17 | DWECLFLPGRRGCTLF (disulfide 4-13 (inferred)) [SEQ ID NO 118] | < 100
18 | DWECLFLPGRRGCLLF [SEQ ID NO 110] | < 100
19 | DWECIFLPGRRGCTLF (disulfide 4-13 (inferred)) [SEQ ID NO 114] | < 100
20 | KYWCLRSEPDACFAT (disulfide 4-12 (inferred)) [SEQ ID NO 51] | < 100
21 | FLPWPVYFSQVL [SEQ ID NO 5] | < 100
22 | FVPWDVYFSQIL [SEQ ID NO 10] | < 100
23 | EWECRFLPGRRGCSLF [SEQ ID NO 92] | < 100

Row | Binder | IC50 [µM]
24 | KLFCLRSGDRACWVV (disulfide 4-12 (inferred)) [SEQ ID NO 60] | < 100
25 | RSCNRYGIWGHCDT [SEQ ID NO 72] | < 100
26 | GFRCTYDPGTHSCWSI [SEQ ID NO 94] | < 100
27 | VFCIGYGAAQSCHS [SEQ ID NO 82] | < 100
28 | AGWCKLNPGTQVCSFY (disulfide 4-13 (inferred)) [SEQ ID NO 126] | < 100
29 | RFICRIQPGREGCWSL [SEQ ID NO 98] | < 100
30 | TRCTVIGPPWSCRF [SEQ ID NO 81] | < 100
31 | EWECWFLPGRRGCTLI [SEQ ID NO 116] | < 100
32 | NWECIFSPGRRGCSLT [SEQ ID NO 121] | < 100
33 | SKCVYDYNFGTCIF [SEQ ID NO 79] | < 100
34 | FWECVYSPGSRGCRMV (disulfide 4-13 (inferred)) [SEQ ID NO 93] | < 100
35 | SLNCKTRPGLRWCTWT [SEQ ID NO 100] | < 100
36 | RQCNCLSPGELVNCQQ [SEQ ID NO 307] | < 100
37 | VRCLYDSITRTCTF [SEQ ID NO 83] | < 100
38 | WVACSWDHGCRS (disulfide 4-10 (inferred)) [SEQ ID NO 43] | < 100
39 | IKCRVLEAGTPCVF (disulfide 3-12 (inferred)) [SEQ ID NO 73] | < 100
40 | DRCDTRTWGYYCWI [SEQ ID NO 86] | < 100
41 | RRFCLRSEPAACWFV [SEQ ID NO 67] | < 100
42 | YVLCSNRNGCRP [SEQ ID NO 41] | < 100
43 | GSRCYWDPGREVCIFK [SEQ ID NO 91] | < 100
44 | PWVCEHYPGRRGCVLM (disulfide 4-13 (inferred)) [SEQ ID NO 96] | < 100
45 | VSCKIDRRSGSCLF (disulfide 3-12 (inferred)) [SEQ ID NO 84] | < 100
46 | FFLCDDFPGLPRCEWI [SEQ ID NO 128] | < 100

Row | Binder | IC50 [µM]
47 | YVTCRWGYGCTR [SEQ ID NO 42] | < 100
48 | MRCILSPSREHCLF [SEQ ID NO 76] | < 100
49 | NWECIFSPGRRGCSLT [SEQ ID NO 109] | < 100
50 | EWECLFMPGRRGCLLM (disulfide 4-13 (inferred)) [SEQ ID NO 111] | < 100
51 | FVEWQAYFSQMM [SEQ ID NO 6] | < 100
52 | VRFCRSGPGWVSCGTQ [SEQ ID NO 102] | < 100
53 | FIPWDEYFAQLL [SEQ ID NO 8] | < 100
54 | RWECIYIPGRKGCTLQ [SEQ ID NO 99] | < 100
55 | TWDCLFLPGRRGCTLM [SEQ ID NO 120] | < 100
56 | VSCRFRPDLGFCIF [SEQ ID NO 85] | < 100
57 | LSVCSCPPGQLYCMVE (disulfide (positions not given here); also: disulfide between two of the three Cys, which not given here) [SEQ ID NO 304] | < 100
58 | HEICCGPPGCHSCSVT [SEQ ID NO 303] | < 100
59 | FIPWDEYFKQVL [SEQ ID NO 9] | < 100
60 | VRLCRVGPGYESCPAN [SEQ ID NO 103] | < 100
61 | VYECLFMPGRKGCFGM [SEQ ID NO 115] | < 100
62 | QWSCVFSPGVRGCKLV (disulfide 4-13 (inferred)) [SEQ ID NO 97] | < 100
63 | RVYCLASEPNSCWST [SEQ ID NO 52] | < 100
64 | WAYDWSCFRRRL [SEQ ID NO 3] | < 100
65 | LRCRLDTRDGTCRF [SEQ ID NO 75] | < 100
66 | EQFCLVSDPMACWSL (disulfide 4-12 (inferred)) [SEQ ID NO 50] | < 100
67 | EWECLFLPGRKGCTLF [SEQ ID NO 113] | < 100
68 | IRCRYEKQSGICLF [SEQ ID NO 74] | < 100
